Assay results as given in PMC4523205, “Human Non-neutralizing HIV-1 Envelope Monoclonal Antibodies Limit the Number of Founder Viruses during SHIV Mucosal Infection in Rhesus Macaques” (PLoS Pathogens, 2015).

Biological target: T1, Env of SHIV-SF162P3, on virions (SHIV-SF162P3, env from HIV-1 SF162 …, UniProt P19550, strain)
T1 construct: HIV-1 SF162-derived envelope glycoprotein (gp120/gp41) of SHIV-SF162P3, as it stands on virus particles; source: virus stock
Experiment: infectious virus capture assay (plate based); antibody mixed with viral stock, immune complexes held on plates coated with anti-human IgG, captured infectious virus read with indicator cells (RLU)
Details: one partner purified

B1: 7B2 IgG1_AAA (antibody, V domains shown)
VH: QVQLVQSGGGVFKPGGSLRLSCEASGFTFTEYYMTWVRQAPGKGLEWLAYISKNGEYSKYSPSSNGRFTISRDNAKNSVFLQLDRLSADDTAVYYCARADGLTYFSELLQYIFDLWGQGARVTVSS
VL: DIVLAQSPDSLAVSPGERATIHCKSSQTLLYSSNNRHSIAWYQQRPGQPPKLLLYWASMRLSGVPDRFSGSGSGTDFTLTINNLQAEDVAIYYCHQYSSHPPTFGHGTRVELR
notes: variable region as in the heavy chain of m1 (PDB 4YDV, heavy chain); as the light chain of m1 (PDB 4YDV, light chain); IgG1 with the Fc changes S298A, E333A, K334A; also called 7B2_AAA; source: CHO cells (Catalent, Somerset, NJ), recombinant; copies: 2 + 2
  binding result: binds
